Values quoted from earlier work, collected in article PMC11678748.

Molecular target: KCCYSL peptide (synthetic construct)

HER2 (from UniProt P04626)
Kd: 295 nM
